Data from the Human Domainome abundance scans (Beltran et al. 2025).
± gives the uncertainty stated by the source.

B1: V(D)J recombination-activating protein 2, residues 415 to 491; numbered along this chain, P55895 (parent)
chain: YWITCCPTCDVDINTWVPFYSTELNKPAMIYCSHGDGHWVHAQCMDLAERTLIHLSAGSNKYYCNEHVEIARALHTP
B2: E3 ubiquitin-protein ligase NEDD4, residues 836 to 881; numbered along this chain, P46934 (parent)
chain: EIEQGFLPKGWEVRHAPNGRPFFIDHNTKTTTWEDPRLKIPAHLRG

Variants of: B1
Experiment: abundance fitness (aPCA) (normalised: wild type 0, dead -1); higher = more abundant; growth selection in yeast, the domain comes from the species named
Conditions: Homo sapiens

Abundance fitness: each site, then its substitutions
E66: Q -0.057 ± 0.12, R -0.127 ± 0.058, S -0.039 ± 0.074, T -0.063 ± 0.13, V -0.105 ± 0.06, W -0.192 ± 0.078
H67: C -0.031 ± 0.074, D -0.424 ± 0.1, F -0.485 ± 0.1, G -0.116 ± 0.044, I -0.874 ± 0.31, K -0.388 ± 0.081, L -0.741 ± 0.043, M -0.579 ± 0.053, N -0.32 ± 0.096, P -0.369 ± 0.069, Q -0.348 ± 0.058, R -0.253 ± 0.034, S -0.196 ± 0.054, T -0.22 ± 0.076, V -0.387 ± 0.048, W -0.484 ± 0.055
V68: A -0.173 ± 0.14, C -0.019 ± 0.14, E -0.439 ± 0.22, G 0 ± 0.091, I -0.318 ± 0.2, K -0.115 ± 0.14, L -0.08 ± 0.091, M -0.087 ± 0.2, N -0.219 ± 0.4, P -0.125 ± 0.25, Q -0.495 ± 0.48, R -0.163 ± 0.18, W -0.076 ± 0.2, Y -0.335 ± 0.19
E69: A -0.092 ± 0.33, C -0.355 ± 0.31, D 0.052 ± 0.16, G 0 ± 0.1, K -0.183 ± 0.29, M 0.18 ± 0.27, P 0.358 ± 0.38, Q 0.147 ± 0.37, R 0.035 ± 0.087, S 0.075 ± 0.11, T 0.007 ± 0.13, V -0.14 ± 0.2, W 0.071 ± 0.23, Y -0.328 ± 0.41
I70: C 0.176 ± 0.13, D 0.112 ± 0.14, E -0.093 ± 0.097, F -0.002 ± 0.091, G -0.045 ± 0.053, H -0.205 ± 0.23, K -0.139 ± 0.12, L 0.03 ± 0.073, M 0.02 ± 0.077, N -0.169 ± 0.18, P -0.216 ± 0.22, Q -0.036 ± 0.089, R 0.015 ± 0.03, S -0.145 ± 0.14, Y 0.064 ± 0.14
A71: C -0.033 ± 0.061, D -0.038 ± 0.088, E 0.085 ± 0.072, G -0.051 ± 0.05, H -0.179 ± 0.12, I -0.008 ± 0.1, K -0.225 ± 0.1, L 0.027 ± 0.037, M -0.12 ± 0.1, N -0.121 ± 0.1, P -0.03 ± 0.079, Q 0.044 ± 0.069, R 0.026 ± 0.052, S -0.04 ± 0.06, T 0.09 ± 0.1, V -0.003 ± 0.051, W -0.207 ± 0.18, Y 0.124 ± 0.15
R72: A 0.138 ± 0.11, C -0.143 ± 0.16, D 0.032 ± 0.21, E -0.042 ± 0.12, F -0.131 ± 0.18, G 0.022 ± 0.11, I -0.121 ± 0.19, K 0.022 ± 0.18, N 0.059 ± 0.21, P 0.01 ± 0.1, Q -0.085 ± 0.12, S 0.073 ± 0.071, T 0.056 ± 0.08, V -0.016 ± 0.12, W -0.168 ± 0.075, Y -0.332 ± 0.16
A73: D 0.019 ± 0.12, E -0.009 ± 0.1, G 0.096 ± 0.071, I -0.042 ± 0.098, L 0.053 ± 0.084, M -0.121 ± 0.1, P 0.027 ± 0.13, Q 0.009 ± 0.14, R 0.001 ± 0.057, S -0.089 ± 0.14, T 0.033 ± 0.088, V -0.257 ± 0.071, W -0.104 ± 0.086, Y -0.109 ± 0.17
L74: G 0.092 ± 0.16, Q -0.062 ± 0.25
H75: A 0.002 ± 0.08, C -0.155 ± 0.092, D 0.094 ± 0.12, E 0.029 ± 0.12, F -0.087 ± 0.1, G 0.087 ± 0.11, I -0.003 ± 0.14, K -0.003 ± 0.1, L -0.013 ± 0.049, N 0.051 ± 0.26, P -0.111 ± 0.063, Q 0.089 ± 0.11, R -0.001 ± 0.058, S -0.042 ± 0.081, T 0.089 ± 0.068, V -0.075 ± 0.08, W -0.069 ± 0.064, Y -0.179 ± 0.1
T76: A 0.005 ± 0.076, C -0.416 ± 0.18, F -0.373 ± 0.17, G -0.057 ± 0.056, H -0.149 ± 0.2, I -0.155 ± 0.14, K 0.081 ± 0.094, L -0.029 ± 0.078, M -0.034 ± 0.089, N -0.13 ± 0.13, P 0.054 ± 0.11, Q -0.009 ± 0.097, R -0.091 ± 0.073, S -0.046 ± 0.077, V -0.074 ± 0.064, W -0.321 ± 0.11
P77: A -0.123 ± 0.21, C -0.243 ± 0.34, G -0.157 ± 0.35, N -0.325 ± 0.35, Q -0.011 ± 0.26, R 0.152 ± 0.31, S -0.354 ± 0.29, W -0.237 ± 0.38

Variants of: B2
Experiment: as above
Conditions: Homo sapiens

Abundance fitness: each site, then its substitutions
P21: N -0.487 ± 0.11
G5: V -0.171 ± 0.053
D35: L -0.623 ± 0.055
W33: R -0.506 ± 0.047
E1: A -0.259 ± 0.12
T31: N -0.727 ± 0.15
L44: M -0.002 ± 0.081
I40: F -0.239 ± 0.062
W11: N -0.106 ± 0.091
K29: M -0.303 ± 0.081
